Among the data in PMC2637916 are stoichiometry N values, retold here.

Assay [1] addresses Guanylyl cyclase activating protein 1 (GCAP1), recombinant, with the D6S mutation (UniProt P46065). The assay is described as follows: pulsed-field gradient diffusion NMR.
Assay [2] shares this target. Description: SEC. (Size exclusion chromatography separates by hydrodynamic size, large species first.)

Usually stoichiometry N stands for a count of units in the complex or per binding partner. In the case of “Guanylyl cyclase activating protein 1 (GCAP1), recombinant, with the D6S mutation (from UniProt P46065 1-205) (natural protein)”, the stoichiometry N in assay [1] and in assay [2] was 2 each time.
